We go through 14 molecules from US9012420B2, “Aptamer for chymase, and use thereof” (Ribomic Inc., priority 2009, dated 2015).

Oligonucleotides are written 5' to 3', each unit as a sugar letter and its base; * is a phosphorothioate linkage, no mark a phosphodiester; rarer units and linkages stand in square brackets, end groups in braces. Plain capitals give the bases only. r = 2'-OH (RNA); f = 2'-fluoro

The target of one data set is T1, chymase (Homo sapiens, UniProt P23946).
T1 sequence (P23946 22-247): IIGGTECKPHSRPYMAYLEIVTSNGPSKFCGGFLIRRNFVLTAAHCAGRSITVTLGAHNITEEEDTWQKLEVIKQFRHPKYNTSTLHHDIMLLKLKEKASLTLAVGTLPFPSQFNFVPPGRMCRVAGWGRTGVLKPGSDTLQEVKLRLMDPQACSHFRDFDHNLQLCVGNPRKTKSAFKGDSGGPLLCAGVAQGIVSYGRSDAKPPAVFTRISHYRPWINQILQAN
Nature of the data set: Surface plasmon resonance (Biacore T100), aptamer immobilized on SA chip, chymase injected as analyte. Format: binding. On the set-up: key: ++: a sequence that binds to chymase significantly more strongly than the negative control 40N; +: a sequence that binds to chymase equivalently compared with the negative control 40N. Particulars: Table 1; about 1000 RU nucleic acid immobilized, chymase 0.2 μM analyte, running buffer solution A; compared with 40N. How it is done: Binding strength is measured using Biacore T100 (manufactured by GE Healthcare). In a method of measurement, the aptamer is first immobilized onto a sensor chip, the amount immobilized being about 1000 RU. 20 μL of a chymase solution for analyte, prepared at 0.2 μM, is injected, and the binding of chymase to the aptamer is detected. An RNA comprising a random nucleotide sequence of 30 or 40 nucleotides is used as a negative control.
The binding activities against chymase of the nucleic acids shown by SEQ ID NO: 4-20 and 22-34 were determined by the surface plasmon resonance method using Biacore T100 (manufactured by GE Healthcare). The sensor chip used was the SA chip, which had streptavidin immobilized thereon. Bound thereto was about 1500 RU of a 16-nucleotide Poly dT with biotin bound to the 5′ end thereof. […] 20 μL of chymase for analyte, prepared at 0.2 μM, was injected. Solution A was used as a running buffer.
The binding activities against chymase of the nucleic acids shown by SEQ ID NO: 38-48 were evaluated by the surface plasmon resonance method. In the evaluations for SEQ ID NO: 38-48, measurements were taken in the same manner as Example 1. Solution C was used as a running buffer.
In general terms: SPR reads the build-up and loss of mass on a sensor chip optically.

Data set [1] concerns the target T2, chymase (recombinant, manufactured by SIGMA) (Homo sapiens, UniProt P23946).
T2 construct: purchased SIGMA; host or cells: yeast
T2 sequence (P23946 22-247): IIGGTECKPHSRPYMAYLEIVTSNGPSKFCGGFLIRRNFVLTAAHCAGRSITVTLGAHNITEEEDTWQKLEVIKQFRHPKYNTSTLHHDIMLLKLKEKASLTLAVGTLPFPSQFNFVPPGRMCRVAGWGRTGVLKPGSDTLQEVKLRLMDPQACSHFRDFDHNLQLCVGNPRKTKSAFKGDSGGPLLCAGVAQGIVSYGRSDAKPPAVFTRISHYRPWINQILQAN
In words: Chymase inhibitory activity using synthetic substrate Suc-Ala-Ala-Pro-Phe-MCA. In kind it is biochemical. The following applies: Table 3; substrate 100 μM, solution C, 37° C.; mean value for 2 to 3 measurements. How it is done:
A first method employs a synthetic substrate. A useful chymase substrate is Suc-Ala-Ala-Pro-Phe-MCA (4-methylcoumaryl-7-amide group) (manufactured by Peptide Institute, Inc.), which contains the 4-amino acid peptide “Ala-Ala-Pro-Phe”, a standard substrate for chymotrypsin-like proteases.
The assay is performed using a 96-well plate (F16 Black Maxisorp Fluoronunc, manufactured by Nunc), with a reaction mixture volume of 100 μL, in a buffer solution (solution C; see Example 2 below). First, each nucleic acid is prepared in solution C to obtain 50 μL solutions. After 10 μL of the 1 mM substrate prepared in solution C is added, the plate is set to the microplate reader SpectraMax190 (manufactured by Molecular Devices Corporation), and incubated at 37° C. for 5 minutes. Separately, 0.05 μg of chymase (recombinant, manufactured by SIGMA) is diluted in solution C, and 40 μL of this dilution is incubated at 37° C. for 5 minutes. The chymase solution is added to the mixture of the nucleic acid and substrate to initiate an enzyme reaction. The plate containing the reaction mixture is set to the microplate reader SpectraMax190 (manufactured by Molecular Devices Corporation), and examined for time-dependent changes in the fluorescence intensity at 37° C. for 5 minutes (excitation wavelength 380 nm, detection wavelength 460 nm). A linear approximation of the increase in the fluorescence of the AMC (7-amino-4-methylcoumarine) released from the substrate by chymase activity is generated, and its slope is taken as the initial reaction velocity. For control, samples are treated and analyzed in the same manner in two cases: use of a nucleic acid pool containing a random sequence of 30 or 40 nucleotides (negative control), and use of chymostatin, a known chymotrypsin-like serine protease inhibitor (positive control). Taking the initial reaction velocity without the nucleic acid and inhibitor as a 100% enzyme activity, the inhibitory rate for each test substance is calculated, and the inhibitor concentration required to cause a 50% inhibition of the enzyme activity (IC50) is determined.
Whether the nucleic acids shown by SEQ ID NO: 4-20, 22-34, and 38-48 inhibit the enzyme activity of chymase was determined as described below. The chymase substrate used was Suc-Ala-Ala-Pro-Phe-MCA (manufactured by Peptide Institute, Inc.), which contains the 4-amino-acid peptide Ala-Ala-Pro-Phe, a standard substrate for chymotrypsin-like proteases. Here, Suc is a protecting succinyl group, and MCA is a 4-methylcoumaryl-7-amide group; upon cleavage of the C-terminal side of phenylalanine, AMC (7-amino-4-methylcoumarine) is released. By detecting the fluorescence of this AMC, the enzyme activity of chymase can be determined. The assay was performed using a 96-well plate (F16 Black Maxisorp Fluoronunc, manufactured by Nunc), with a reaction mixture volume of 100 μL, in solution C as a buffer solution. First, each nucleic acid was serially diluted to 0.0027-2 μM concentrations in solution C to obtain 50 μL solutions. After 10 μL of the 1 mM substrate prepared in solution C was added thereto, the plate was set to the microplate reader SpectraMax190 (manufactured by Molecular Devices Corporation), and incubated at 37° C. for 5 minutes. Separately, 0.05 μg (or 0.005 μg) of chymase (recombinant, manufactured by SIGMA) was diluted in solution C to obtain a 40 μL chymase solution, and incubated at 37° C. for 5 minutes. The chymase solution was added to the mixture of the nucleic acid and substrate to initiate an enzyme reaction. The final chymase concentration in the reaction mixture was 16.7 nM (or 1.67 nM), the final substrate concentration being 100 μM. The plate containing the reaction mixture was set to the microplate reader SpectraMax190 (manufactured by Molecular Devices Corporation), and examined for time-dependent changes in the fluorescence intensity at 37° C. for 5 minutes (or 30 minutes) (excitation wavelength 380 nm, detection wavelength 460 nm). […]

B1: 22 (nucleic acid)
chain: rGrGrGrAfCrGrGfUrArGrGrArAfUfUfCfCfCrGrAfCrAfCrArArArAfUrGfUrGfUrGrAfUfUrArAfUfUfCfCrGrArAfCrArAfCrArArArGfUrArAfCrAfUrArGrArArGrArGfCrGrGfCfCrGfC
modifications: aptamer
What is called IC50 is the point on the concentration scale where inhibition reaches its midpoint. B1: the “Binding activity as determined using Biacore” value (from here on “Binding activity as determined”) in the data set with chymase is on record as “+”. Besides, in data set [1], the IC50 came to 105 ± 9 nM.

B2: 28 (nucleic acid)
chain: rGrGrGrAfCrGrGfUrArGrGrArAfUfUfCrArAfUfUfUfCfUfUfUfCfUrAfUfUfCfUfCrAfCfCfUrGrArGfUrAfUrAfUfCrArGrGfCrAfCrArGfUrAfCrAfUrArGrArArGrArGfCrGrGfCfCrGfC
modifications: aptamer
Regarding B2, the “Binding activity as determined” value with chymase is “+”. Moreover, the IC50 in data set [1] turned out to be 45 ± 4 nM.

B3: 17 (nucleic acid)
chain: rGrGrGrAfCrGrGfUrArGrGrArAfUfUfCfCrGfUfUfCrGfCrArGrArArAfCrGrArAfCfUfUfUfUrArArArArArAfUrGfUrAfCrGfUrGrGrGrArGfCrAfCrAfUrArGrArArGrArGfCrGrGfCfCrGfC
For the molecule B3, in the data set with chymase, the “Binding activity as determined” value is given as “++”. Further, in data set [1], the IC50 worked out at 92 ± 42 nM.

B4: 16 (nucleic acid)
chain: rGrGrGrAfCrGrGfUrArGrGrArAfUfUfCfCfCrAfUrGrAfCfUrGrArArArArAfCrGfUfCrArGfUrArArArAfUfCfCrGrArArArAfUfCrAfUrAfUfCrAfUrArGrArArGrArGfCrGrGfCfCrGfC
modifications: aptamer
Take B4: in the data set with chymase, the “Binding activity as determined” value is “++”. Also, the IC50 in data set [1] was greater than 500 nM.

B5: 18 (nucleic acid)
chain: rGrGrGrAfCrGrGfUrArGrGrArAfUfUfCrGrArAfCrGrAfCrArArAfUfUrAfUrArGrArAfCfUfUfCrGfUfUfUrGrAfCrAfUfUfCfCrAfCrAfCfCrAfCrAfUrArGrArArGrArGfCrGrGfCfCrGfC
modifications: aptamer
As for B5, the “Binding activity as determined” value with chymase is on record as “++”. For the same molecule, the IC50 in data set [1] worked out at 58 ± 21 nM.

B6: 19 (nucleic acid)
chain: rGrGrGrAfCrGrGfUrArGrGrArAfUfUfCfCfCrAfCfUrGfCrArAfUfUfCrArGfCrArGrArArArArArAfUfUfCfCrGrArArArArAfCrAfCrAfCrAfCfCrAfUrArGrArArGrArGfCrGrGfCfCrGfC
modifications: aptamer
For the molecule B6, in the data set with chymase, the “Binding activity as determined” value is given as “++”. Also, in data set [1], the IC50 is 163 ± 1 nM.

B7: 26 (nucleic acid)
chain: rGrGrGrAfCrGrGfUrArGrGrArAfUfUfCrGfUfCrGrAfUfUfCfUrAfCrArGrAfUrArGrArGrAfUrArArArGfUrArGrArAfUfUfUrArAfCrArArArAfCrAfUrArGrArArGrArGfCrGrGfCfCrGfC
modifications: aptamer
B7: the “Binding activity as determined” value with chymase was “++”. Besides, in data set [1], the IC50 came to 106 ± 4 nM.

B8: 20 (nucleic acid)
chain: rGrGrGrAfCrGrGfUrArGrGrArAfUfUfCrArArArAfUfCrArGfCfUrGrAfUfUfUrGfUrArAfUfUfUfUfUfUfUrAfCrAfCrArGrGfCrArArArAfCrAfCrAfUrArGrArArGrArGfCrGrGfCfCrGfC
modifications: aptamer
For the molecule B8, the “Binding activity as determined” value in the data set with chymase was “+”. Further, the IC50 in data set [1] turned out to be 282 ± 13 nM.

B9: 29 (nucleic acid)
chain: rGrGrGrAfCrGrGfUrArGrGrArAfUfUfCrAfCrGrAfCfCrGfCfCfCrArArArArArAfUrGrGfUrGrAfCrAfUfUfUfUrArGrArArAfCrAfCfCrGrArAfCrAfUrArGrArArGrArGfCrGrGfCfCrGfC
modifications: aptamer
With B9, in the data set with chymase, the “Binding activity as determined” value is reported as “++”. Also, in data set [1], the IC50 is greater than 500 nM.

B10: 30 (nucleic acid)
chain: rGrGrGrAfCrGrGfUrArGrGrArAfUfUfCrGfUfCfCfCfUfCfUfUrGfUfCfUrAfUfUfUfUrGfCrArGrAfUrArGrAfCfUfUrArArArGfCrArArAfCrAfUrArGrArArGrArGfCrGrGfCfCrGfC
For the molecule B10, the “Binding activity as determined” value in the data set with chymase was “++”. The IC50 in data set [1] is 147 ± 44 nM.

B11: 24 (nucleic acid)
chain: rGrGrGrAfCrGrGfUrArGrGrArAfUfUfCfCfCfUfUfCrAfUrArGfUrArGrArAfUrGfUfUrGrGfUfUfUfCfUrAfCrArArArArGfCrGrAfCrArArGfCrAfUrArGrArArGrArGfCrGrGfCfCrGfC
modifications: aptamer
Regarding B11, in the data set with chymase, the “Binding activity as determined” value is given as “++”. Further, the IC50 in data set [1] was determined as 92 ± 3 nM.

B12: 23 (nucleic acid)
chain: rGrGrGrAfCrGrGfUrArGrGrArAfUfUfCrAfUrAfUrGfUrAfCfUfCfCrGfUfCfCfUrGrAfCrArArArAfUrGfUfCrArAfUrGrAfCrArArAfCrGfUfUfCrAfUrArGrArArGrArGfCrGrGfCfCrGfC
modifications: aptamer
As for B12, in the data set with chymase, the “Binding activity as determined” value was “++”. Also, in data set [1], the IC50 is 238 ± 60 nM.

B13: 25 (nucleic acid)
chain: rGrGrGrAfCrGrGfUrArGrGrArAfUfUfCrArGfCfUrGrAfCfUfCfCrArAfUrGfCrAfCrAfCrGfUrArGrAfUrArGrArGfUfUrArArArAfCrGfUfUrGfCrAfUrArGrArArGrArGfCrGrGfCfCrGfC
modifications: aptamer
On to B13, for which, in the data set with chymase, the “Binding activity as determined” value was “++”. Further, the IC50 in data set [1] was 79 ± 28 nM.

B14: 27 (nucleic acid)
chain: rGrGrGrAfCrGrGfUrArGrGrArAfUfUfCfCrGfUfCrAfUfCrGrGfUfUrGfCrArArAfUfUrGrArArArAfUrAfCrArArArAfCrArArGrGrAfCrArAfCfCrAfUrArGrArArGrArGfCrGrGfCfCrGfC
modifications: aptamer
In the case of B14, the “Binding activity as determined” value in the data set with chymase is on record as “++”. The IC50 in data set [1] is greater than 500 nM.
